From patent US20250043290A1, “RNA SEQUENCES THAT INDUCE FLUORESCENCE OF SMALL MOLECULE FLUOROPHORES, MOLECULAR COMPLEXES, SENSORS, AND METHODS OF USE THEREOF” (CORNELL UNIVERSITY, priority 2021, published 2025)

Assay: Dissociation constant of RNA-fluorophore complex, titration with DFHO
Format: binding
Conditions: 50 nM RNA, one-site saturation model
Source text: FIG. 2A is a schematic showing the secondary structure of Squash as predicted by mFOLD (Squash: 5′-GGCUACAAGGUGAGCCCAAUAAUACGGUUUGGGUUAGGAUAGGAAGUAGAGCCGUAAACUCUCUAAGCGGUAGUC-3′ (SEQ ID NO:1)). Squash retained the main structural elements of add A-riboswitch aptamer including a 3-way junction and predicted kissing loop interactions (residues at positions 30, 31, 56, and 57, solid gray line). An additional base pair in the kissing loop between loop L2 and L3 (residues at positions 29 and 58, dotted gray line) improved fluorescence activation. […] Shown are the excitation (Ex) and emission (Em) spectra of Squash bound to DFHBI-1T and DFHO (structures shown in inset). Spectra were measured using 20 μM RNA and 2 μM of the indicated fluorogenic dye. […] Fluorescence activation was measured by incubating 200 nM dye and 10 μM RNA. By using a large excess of RNA compared to the fluorophore, it was ensured that the fluorescence observed is from 200 nM RNA-fluorophore complex. Data represent mean values±s.d. for n=3 independent experiments. The values inside the bars indicate fold activation. AU, arbitrary units. […] FIG. 2E is a bar graph showing the results of an experiment in which Squash-DFHO fluorescence was measured in buffers containing exclusively the indicated cations. […]

B1: Squash: fluorogenic RNA aptamer evolved from the add A-riboswitch aptamer, binds DFHBI-1T and DFHO; SEQ ID NO: 12 (SEQ ID NO: 1) (nucleic acid)
chain: AGGUGAGCCCAAUAAUACGGUUUGGGUUAGGAUAGGAAGUAGAGCCGUAAACUCUCUAAGCG
modifications: RNA, backbone not given here
Kd: 0.054 µM
